This note sets out measurements from US20170015720A1 (published 2017).

To fix the notation:
T1: CLDN6 (Claudin-6) peptide on HLA-A*02:01 (human)
T1 peptide: QILGVVLTL

T2: CLDN6 (Claudin-6) peptide on HLA-A*02:01 (human)
T2 peptide: ALFGLLVYL

B1: TCRCD8-mC16#7 (TCR, V domains shown)
Valpha: GDSVTQTEGQVALSEEDFLTIHCNYSASGYPALFWYVQYPGEGPQFLFRASRDKEKGSSRGFEATYDKGTTSFHLRKASVQESDSAVYYCALGNNYAQGLTFGLGTRVSVFP
Vbeta: EAAVTQSPRSKVAVTGGKVTLSCHQTNNHDYMYWYRQDTGHGLRLIHYSYVADSTEKGDIPDGYKASRPSQENFSLILELASLSQTAVYFCASSTGNERLFFGHGTKLSVL
B2: TCRCD8-mC16#1 (TCR, V domains shown)
Valpha: AQSVTQPDARVTVSEGASLQLRCKYSYFGTPYLFWYVQYPRQGLQLLLKYYPGDPVVQGVNGFEAEFSKSNSSFHLRKASVHWSDWAVYFCAVSMSSGTYQRFGTGTKLQVVP
Vbeta: DMKVTQMPRYLIKRMGENVLLECGQDMSHETMYWYRQDPGLGLQLIYISYDVDSNSEGDIPKGYRVSRKKREHFSLILDSAKTNQTSVYFCASSSQNQDTQYFGPGTRLLVL
B3: TCRCD8-mC16#2 (TCR, V domains shown)
Valpha: GDSVTQTEGQVTVSESKSLIINCTYSATSIGYPNLFWYVRYPGEGLQLLLKVITAGQKGSSRGFEATYNKEATSFHLQKASVQESDSAVYYCALNNQGKLIFGQGTKLSIKP
Vbeta: EAAVTQSPRNKVAVTGGKVTLSCNQTNNHNNMYWYRQDTGHGLRLIHYSYGAGSTEKGDIPDGYKASRPSQENFSLILELATPSQTSVYFCASGGDSQNTLYFGAGTRLSVL
B4: TCRCD8-mC16#18 (TCR, V domains shown)
Valpha: GDSVTQTEGPVTVSESESLIINCTYSATSIAYPNLFWYVRYPGEGLQLLLKVITAGQKGSSRGFEATYNKETTSFHLQKASVQESDSAVYYCALGETGSFNKLTFGAGTRLAVCP
Vbeta: NSKVIQTPRYLVKGQGQKAKMRCIPEKGHPVVFWYQQNKNNEFKFLINFQNQEVLQQIDMTEKRFSAECPSNSPCSLEIQSSEAGDSALYLCASSLGIYEQYFGPGTRLTVL
B5: TCRCD8-mC16#8 (TCR, V domains shown)
Valpha: AQKVTQTQTSISVVEKTTVTMDCVYETRDSSYFLFWYKQTASGEIVFLIRQDSYKKENATVGHYSLNFQKPKSSIGLIITATQIEDSAVYFCAMREAANSGTYQRFGTGTKLQVVP
Vbeta: DPKIIQKPKYLVAVTGSEKILICEQYLGHNAMYWYRQSAKKPLEFMFSYSYQKLMDNQTASSRFQPQSSKKNHLDLQITALKPDDSATYFCASSQQNSGNTLYFGEGSRLIVV
B6: TCRCD8-mC16#12 (TCR, V domains shown)
Valpha: GEQVEQRPPHLSVREGDSAVITCTYTDPNSYYFFWYKQEPGASLQLLMKVFSSTEINEGQGFTVLLNKKDKRLSLNLTAAHPGDSAAYFCAVESSSFSKLVFGQGTSLSVVP
Vbeta: NSKVIQTPRYLVKGQGQKAKMRCIPEKGHPVVFWYQQNKNNEFKFLINFQNQEVLQQIDMTEKRFSAECPSNSPCSLEIQSSEAGDSALYLCASSLTGGAQDTQYFGPGTRLLVL
B7: TCRCD8-mC16#14 (TCR, V domains shown)
Valpha: GDQVEQSPSALSLHEGTGSALRCNFTTTMRAVQWFRKNSRGSLINLFYLASGTKENGRLKSAFDSKERYSTLHIRDAQLEDSGTYFCAAEGGGNYKPTFGKGTSLVVHP
Vbeta: AQTIHQWPVAEIKAVGSPLSLGCTIKGKSSPNLYWYWQATGGTLQQLFYSITVGQVESVVQLNLSASRPKDDQFILSTEKLLLSHSGFYLCAWSPPINTEVFFGKGTRLTVV

The first experiment concerns the target T1, CLDN6 (Claudin-6) peptide on HLA-A*02:01. The experiment is described as follows: cytokine release.
Consider B1, for which the binding result is “recognises”.

Another experiment has as its target T2, CLDN6 (Claudin-6) peptide on HLA-A*02:01. Put plainly: killing.
Regarding B2, the binding result is on record as “recognises”.
The same measure, in the same setting: the value for B3 was “recognises”.
On the same count and under the same terms, the entry for B4 is “recognises”; for B5 it is “recognises”; for B6 it is “recognises”.
For the molecule B7, the binding result is listed as “recognises”.
